Test results from US20150344535A1, “NEUROTROPHIN-TYROSINE KINASE RECEPTOR SIGNALING” (THE UNIVERSITY OF QUEENSLAND, priority 2012, published 2015).

What was measured:
[1] = test system: C7-8 spinal cord motor neurons; assay: Motor neuron axotomy (median and ulnar nerve) in neonatal rat; assay type: in vivo; settings: P4 rat pups, peptide in gel foam at axonal stump, 5-day recovery, relative to contralateral side
Experimental: Median and ulnar nerve axotomy was performed on 4 day-old Wistar rat pups as previously described (Cheema et al., 1996). Peptides (c29 and vehicle only; 100 nM) were applied via a 1 mm^3 cube of pluronic gel foam that was sutured to the proximal axonal stump (Cheema et al., 1996). After 5 days the animals were perfused with a 4% solution of paraformaldehyde in phosphate buffer. Cervical spinal cords were removed, after which serial sections were cut at 40 μm, mounted onto gelatin-coated slides and stained in 0.1% cresyl violet. Details of the counting procedure have been described previously (Cheema et al., 1994).
We next investigated whether c29 could prevent motor neuron death following growth factor withdrawal in vivo using a neonatal rat axotomy model. Following unilateral median and ulnar nerve transections of postnatal day 4 (P4) rat pups, c29 or the vehicle protein transduction domain (PTD4) was applied to the proximal site of transaction in a small cube of gel foam. After a 5-day recovery, the number of surviving C7-8 spinal cord motor neurons relative to the contralateral side was determined by histological counts. Such an axotomy causes 50% of the ipsilateral motor neurons to die (Cheema et al., 1996), with control peptide treatment having no effect on this degree of cell death (FIG. 7E, F). […]

[2] = target: T1, p75^FL (Rattus norvegicus, UniProt P07174); assay: NGF-FITC binding by flow cytometry, p75^FL-transfected HEK293 cells
T1 construct: p75^FL—full-length p75^NTR; expressed in transfected cells; host or cells: HEK293
T1 sequence (P07174 30-425): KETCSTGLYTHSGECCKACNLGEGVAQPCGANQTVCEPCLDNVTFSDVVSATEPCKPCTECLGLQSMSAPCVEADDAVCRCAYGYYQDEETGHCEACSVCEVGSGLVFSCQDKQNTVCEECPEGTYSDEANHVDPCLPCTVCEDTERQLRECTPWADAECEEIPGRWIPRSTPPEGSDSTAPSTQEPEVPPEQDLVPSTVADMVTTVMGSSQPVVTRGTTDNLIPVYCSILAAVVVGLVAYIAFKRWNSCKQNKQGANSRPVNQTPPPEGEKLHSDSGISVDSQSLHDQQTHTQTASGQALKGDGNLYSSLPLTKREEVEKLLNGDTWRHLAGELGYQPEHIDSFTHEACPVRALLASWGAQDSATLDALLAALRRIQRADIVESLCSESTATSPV
Experimental: (§1) The NGF was conjugated to FITC by standard methods and detailed flow cytometry acquisition and analysis. For NGF-FITC conjugation 400 μg βNGF in 200 μl pH 8.5 NaHCO3 buffer was mixed with 5-10 μl of 10 mg/ml FITC in 100 μl DMSO for 10 hours at 4° C. on an orbital shaker set to 100 rpm. The excess FITC was removed by dialysis against 3 changes of 5 L of 10 mM Tris, 150 mM NaCl, 0.2% acetic acid, pH 8.2 for 24 hours at 4° C. Conjugate F/P characterization was determined by measuring absorbance at 280 nm and 495 nm according to manufacturer's instructions. Biological activity of the NGF-FITC conjugate was tested by performing PC12 cell neurite outgrowth assays unlabelled NGF, and comparing the levels of neuritogenesis. NGF-FITC conjugates were used within 4 weeks of synthesis.
(§2) For the flow cytometry NGF binding assays, fluorescence cell parameters of at least 20,000 events for PC12 cells and 100,000 events for HEK293 cells were acquired by flow cytometry list mode and measurements were performed on a single cell basis (with compensation for double event counting). Dead cells and debris were gated out of the analysis on the basis of forward scatter fluorescence, and mean, median and maximal fluorescence values of the gated cell populations were analysed using FACS Diva Software (Becton-Dickinson Biosciences) and FACS Express Software (Becton-Dickinson Biosciences).
(§3) Background fluorescence of HEK293 cells was non-transfected cells (±c29 or scrambled peptide treatment) treated with 26 nM NGF-FITC. For PC12 cells, the control population was cells that had not been treated with NGF-FITC. Analysis of real-time NGF-FITC receptor binding experiments was performed on 550,000-600,000 cells at 4° C. in serum free NB medium and binding kinetics were calculated from raw data files compressed to 50,000 binding events using FlowJo and MatLab Software. Data was plotted with the use of GraphPad Prism.
(§4) Only NGF-FITC preparations that promoted equivalent neurite outgrowth of PC12 cells to that of unlabelled NGF were used in binding experiments. To investigate NGF binding, PC12 or transfected HEK293 cells were serum starved for 4 hours, harvested, washed with Dulbecco's Modified Eagle Medium (DMEM), and counted. When used, c29 or scrambled peptide were added to cultures for the third hour of the serum starvation procedure. 1×10^7 cells/ml suspended in 500 μl of serum-free DMEM were incubated with 26 nM NGF-FITC on ice for 60 minutes before analysis. For binding competition assays, following 1 hour in NGF-FITC, cells were washed with ice-cold PBS containing 0.1% normal bovine serum and incubated on ice with unlabeled NGF at concentrations ranging from 100 pM to 10 μM for 30 minutes, then washed twice in PBS before being analysed on a BD Flow Cytometer FACS Scan (Becton-Dickinson).
(§5) To determine association rates, cells were harvested as above following serum starvation and peptide treatment, and were resuspended in 3 ml of serum-free Neurobasal (NB) medium containing […] (Invitrogen) and […] nonessential amino acids, prior to analysis on the flow cytometer. Cells were analysed for 30 seconds prior to the addition of 26 nM NGF-FITC, and then for 30 minutes in real time with an analysis rate of 200-300 events/sec.

[3] = test system: TrkB-expressing cortical neurons; assay: Western blot of phosphorylated Erk1/2 in BDNF-treated cortical neurons; assay type: cell-based; settings: E16 cultured cortical neurons, 15 minutes after BDNF treatment
[4] = target: T2, TrkAK538A (Homo sapiens, UniProt P04629, K544A); assay: NGF-FITC binding by flow cytometry, TrkAK538A-transfected HEK293 cells
T2 construct: expressed in transfected cells; host or cells: HEK293
T2 sequence (P04629 33-796 K544A): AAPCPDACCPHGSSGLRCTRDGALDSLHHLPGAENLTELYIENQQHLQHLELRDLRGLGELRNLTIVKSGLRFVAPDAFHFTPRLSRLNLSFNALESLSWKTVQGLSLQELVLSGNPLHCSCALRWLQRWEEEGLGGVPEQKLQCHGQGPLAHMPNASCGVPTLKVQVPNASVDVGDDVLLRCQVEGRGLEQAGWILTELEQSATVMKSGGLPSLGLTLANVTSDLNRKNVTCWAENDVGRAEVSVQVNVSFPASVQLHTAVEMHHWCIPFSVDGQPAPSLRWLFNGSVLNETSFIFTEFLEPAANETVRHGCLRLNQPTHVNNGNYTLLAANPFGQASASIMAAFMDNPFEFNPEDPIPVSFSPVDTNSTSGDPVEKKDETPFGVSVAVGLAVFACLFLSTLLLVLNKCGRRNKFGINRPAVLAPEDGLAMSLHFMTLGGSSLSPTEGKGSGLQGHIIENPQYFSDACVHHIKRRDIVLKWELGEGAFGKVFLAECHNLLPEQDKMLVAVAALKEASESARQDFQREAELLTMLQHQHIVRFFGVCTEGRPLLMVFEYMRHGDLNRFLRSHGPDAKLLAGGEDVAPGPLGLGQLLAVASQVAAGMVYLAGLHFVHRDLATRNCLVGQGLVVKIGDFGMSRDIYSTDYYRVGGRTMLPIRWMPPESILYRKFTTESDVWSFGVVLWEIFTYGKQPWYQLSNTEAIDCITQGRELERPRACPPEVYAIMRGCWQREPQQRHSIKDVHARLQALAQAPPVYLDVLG
T2 sequence (P01139 122-239 partner limits assumed): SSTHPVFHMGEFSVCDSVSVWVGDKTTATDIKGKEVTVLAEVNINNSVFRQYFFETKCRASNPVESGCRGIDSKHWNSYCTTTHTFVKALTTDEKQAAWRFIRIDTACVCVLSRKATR
Experimental: as §1, §2, §3, §4, §5

[5] = 26 nM NGF-FITC 60 minutes, c.f. p75^FL alone
[6] = 26 nM NGF-FITC 60 minutes, + c29 c.f. TrkAK538A alone

What does the source list for “KRWNSCKQNKQGANSRPVNQTPPPEGEKL (c29- Fragment of p75ICD) [29 amino acid peptide of the p75NTR juxtamembrane Chopper domain; delivered to cells linked to PTD4 or disulfide-linked carrier]”?
axotomised neurons that died [1]: 12%; % of cell population with FITC above background [2, 5]: 100.5 ± 14.2%; Maximal fluorescence per cell of the population [2, 5]: 98.7 ± 4.3%; Mean fluorescence per FITC-positive cell [2, 5]: 105.2 ± 3.6%; Median population fluorescence [2, 5]: 103.8 ± 11.2%; half time of NGF-FITC binding ([2]; 26 nM NGF-FITC, cells treated with c29): 7.1 min; fluorescence profile of the population ([2]; pre-treated with c29, NGF-FITC): did not change; phosphorylated Erk1/2 in response to BDNF [3]: enhanced trophic signaling; % of cell population with FITC above background [4, 6]: 112.2 ± 5.3%; Maximal fluorescence per cell of the population [4, 6]: 128.0 ± 11.7%; Mean fluorescence per FITC-positive cell [4, 6]: 125.0 ± 12.1%; Median population fluorescence [4, 6]: 140.5 ± 21.3%; half time of NGF-FITC binding ([4]; 26 nM NGF-FITC, cells pre-treated with c29, average of 3 experiments): 3.6 min; faster association rate than untreated cells ([4]; Hill-Slope association curve fit): ~3 fold; total number of fluorescent cells, median, mean and maximal fluorescence ([4]; compared to control TrkAK538A-transfected cells): significantly increased; mean fluorescence of the population following receptor saturation, higher than untreated ([4]; ~20 minutes after NGF addition): at least 20%
